Test: In vitro release rate from implantable osmotic delivery device (RP-HPLC)
Assay type: physicochemical
Details: 37° C., out to 100 days
Experimental: For each study, a drug reservoir of an implantable osmotic delivery device was filled with 160 μl of one of the suspension formulations described in Example 2. The membrane ends of the osmotic pumps were placed into stoppered glass vials filled with 3 ml phosphate buffer solution (PBS), and the diffusion moderator ends of the osmotic pumps were placed into glass vials filled with 2.5 to 3 ml release rate medium (citrate buffer solution at pH 6.0 with 0.14 M NaCl and 0.2% sodium azide).
Each system was placed into a capped test tube, with the diffusion moderator side down, and partially immersed in a 37° C. water bath. At specified time points, the glass vials at the diffusion moderator ends were replaced with new glass vials filled with 2.5 to 3 ml release rate medium (citrate buffer solution at pH 6.0 with 0.14 M NaCl and 0.2% sodium azide). Samples were collected from the diffusion moderator ends of the osmotic pumps and analyzed using RP-HPLC.

omega interferon showed an approximate release rate of ~50 µg/day.
